Laboratory results: paper PMC10279920, “Single-molecule visualization of Pif1 helicase translocation on single-stranded DNA” (The Journal of Biological Chemistry, 2023)
Positions count from the first letter of the chain named.

Tests used:
Assay in all cases: EMSA; no ATP, 5 mM Mg2+; 35 mM Tris-HCl pH 7.5, 1 mM DTT, 5 mM MgCl2, 60 mM KCl, 0.1 mg/ml BSA, no ATP, 30 min at 30 C; 5 nM ssDNA
Conditions in all cases: protein: recombinant; tags: N-terminal superfolder GFP; Ni-NTA purified; label: 5' Alexa647
GFP-Pif1 L310A = biological target: T1, GFP-Pif1 L310A (Saccharomyces cerevisiae, UniProt P07271 40-859, L310A)
T1 sequence: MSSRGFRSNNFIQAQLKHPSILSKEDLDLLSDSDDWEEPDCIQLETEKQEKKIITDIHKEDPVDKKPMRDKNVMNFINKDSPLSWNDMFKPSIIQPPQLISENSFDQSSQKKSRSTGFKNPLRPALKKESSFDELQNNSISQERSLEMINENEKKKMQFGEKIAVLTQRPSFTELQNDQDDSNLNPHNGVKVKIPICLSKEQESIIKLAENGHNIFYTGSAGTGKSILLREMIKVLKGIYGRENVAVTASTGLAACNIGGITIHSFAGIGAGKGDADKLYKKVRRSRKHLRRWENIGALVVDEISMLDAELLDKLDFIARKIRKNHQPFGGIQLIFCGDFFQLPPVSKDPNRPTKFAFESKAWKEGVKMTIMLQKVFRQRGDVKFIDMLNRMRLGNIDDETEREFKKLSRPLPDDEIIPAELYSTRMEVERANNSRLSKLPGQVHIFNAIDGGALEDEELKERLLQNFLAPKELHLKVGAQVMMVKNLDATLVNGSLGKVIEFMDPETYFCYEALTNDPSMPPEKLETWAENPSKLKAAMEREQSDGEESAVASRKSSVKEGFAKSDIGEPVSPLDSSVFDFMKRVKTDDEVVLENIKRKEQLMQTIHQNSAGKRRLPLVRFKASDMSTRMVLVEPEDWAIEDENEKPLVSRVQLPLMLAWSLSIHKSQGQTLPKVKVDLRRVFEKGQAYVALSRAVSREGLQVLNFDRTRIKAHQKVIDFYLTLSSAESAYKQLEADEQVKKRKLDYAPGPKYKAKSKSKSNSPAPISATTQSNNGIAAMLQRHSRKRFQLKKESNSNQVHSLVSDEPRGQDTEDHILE

GFP-Pif1 E724A = biological target: T2, GFP-Pif1 E724A (Saccharomyces cerevisiae, UniProt P07271 40-859, E724A)
T2 sequence: T1 sequence with A271L, E685A

GFP-Pif1 G291P = biological target: T3, GFP-Pif1 G291P (Saccharomyces cerevisiae, UniProt P07271 40-859, G291P)
T3 sequence: T1 sequence with G252P, A271L

GCTAGCAGTAGCCAGCATCGAACGTACGATCGGTAACGTA (ssDNA) [40-nt ssDNA]
Kd (GFP-Pif1 L310A): 27.8 nM
Kd (GFP-Pif1 E724A): 19 nM
Kd (GFP-Pif1 G291P): 61.4 ± 15.8 nM
